Experimental data taken from patent US20220119490A1 (Genentech, published 2022).

T1: UNC5A (human, UniProt Q6ZN44)
T1 construct: expressed on cells; also called UNC5A expressed on cells
T1 sequence (cell-surface-expressed binding partner, looked up): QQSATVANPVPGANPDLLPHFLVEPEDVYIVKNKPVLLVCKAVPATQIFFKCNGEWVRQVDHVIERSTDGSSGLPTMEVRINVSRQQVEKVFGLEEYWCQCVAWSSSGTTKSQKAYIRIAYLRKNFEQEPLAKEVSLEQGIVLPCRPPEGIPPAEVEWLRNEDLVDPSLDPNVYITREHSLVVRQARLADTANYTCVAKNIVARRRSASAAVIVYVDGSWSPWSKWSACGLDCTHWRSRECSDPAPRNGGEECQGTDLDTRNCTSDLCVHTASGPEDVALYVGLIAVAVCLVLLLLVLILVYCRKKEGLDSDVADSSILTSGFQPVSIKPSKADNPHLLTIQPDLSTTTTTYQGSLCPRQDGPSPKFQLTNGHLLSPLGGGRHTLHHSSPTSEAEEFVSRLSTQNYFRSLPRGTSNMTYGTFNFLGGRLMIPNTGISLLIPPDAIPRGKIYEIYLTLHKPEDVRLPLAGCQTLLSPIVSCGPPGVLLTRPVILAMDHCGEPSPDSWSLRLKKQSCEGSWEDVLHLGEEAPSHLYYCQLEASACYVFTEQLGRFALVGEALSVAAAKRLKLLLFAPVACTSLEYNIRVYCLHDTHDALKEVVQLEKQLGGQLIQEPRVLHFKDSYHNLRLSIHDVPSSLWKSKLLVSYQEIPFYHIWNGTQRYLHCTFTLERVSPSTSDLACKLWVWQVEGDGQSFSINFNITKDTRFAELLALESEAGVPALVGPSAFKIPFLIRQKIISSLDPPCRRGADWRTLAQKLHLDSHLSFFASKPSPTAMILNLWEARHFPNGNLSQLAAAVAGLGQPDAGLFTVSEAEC

T2: UNC5D (human, UniProt Q6UXZ4)
T2 construct: expressed on cells; also called UNC5D expressed on cells
T2 sequence (cell-surface-expressed binding partner, looked up): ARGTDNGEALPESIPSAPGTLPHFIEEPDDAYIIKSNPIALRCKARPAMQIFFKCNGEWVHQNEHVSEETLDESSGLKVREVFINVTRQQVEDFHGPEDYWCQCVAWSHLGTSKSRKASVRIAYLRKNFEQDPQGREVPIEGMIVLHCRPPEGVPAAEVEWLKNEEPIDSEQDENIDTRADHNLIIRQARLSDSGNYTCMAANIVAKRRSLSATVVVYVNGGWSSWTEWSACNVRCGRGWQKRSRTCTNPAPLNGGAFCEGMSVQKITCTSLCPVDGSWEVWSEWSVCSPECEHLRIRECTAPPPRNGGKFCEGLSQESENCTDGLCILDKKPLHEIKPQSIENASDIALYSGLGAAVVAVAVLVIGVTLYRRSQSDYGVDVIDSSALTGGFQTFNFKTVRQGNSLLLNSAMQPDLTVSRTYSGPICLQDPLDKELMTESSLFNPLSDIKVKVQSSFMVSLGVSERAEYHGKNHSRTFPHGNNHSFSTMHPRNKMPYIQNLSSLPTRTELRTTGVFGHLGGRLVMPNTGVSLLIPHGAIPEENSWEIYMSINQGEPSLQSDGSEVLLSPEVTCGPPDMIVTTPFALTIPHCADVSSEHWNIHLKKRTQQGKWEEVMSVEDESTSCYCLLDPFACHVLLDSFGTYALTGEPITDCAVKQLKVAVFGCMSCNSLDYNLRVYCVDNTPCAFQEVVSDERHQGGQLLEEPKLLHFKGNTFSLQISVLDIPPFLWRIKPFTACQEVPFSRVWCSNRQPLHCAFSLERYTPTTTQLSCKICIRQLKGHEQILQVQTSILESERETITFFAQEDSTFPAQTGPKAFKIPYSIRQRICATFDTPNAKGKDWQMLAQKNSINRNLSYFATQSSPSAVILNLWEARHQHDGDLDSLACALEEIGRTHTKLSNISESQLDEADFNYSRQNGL

T3: MDGA1 (human, UniProt Q8NFP4, biotinylated)
T3 construct: extracellular domain; also called MAM domain-containing glycosylphosphatidylinositol anchor protein 1; soluble query
T3 sequence (soluble query ectodomain, looked up): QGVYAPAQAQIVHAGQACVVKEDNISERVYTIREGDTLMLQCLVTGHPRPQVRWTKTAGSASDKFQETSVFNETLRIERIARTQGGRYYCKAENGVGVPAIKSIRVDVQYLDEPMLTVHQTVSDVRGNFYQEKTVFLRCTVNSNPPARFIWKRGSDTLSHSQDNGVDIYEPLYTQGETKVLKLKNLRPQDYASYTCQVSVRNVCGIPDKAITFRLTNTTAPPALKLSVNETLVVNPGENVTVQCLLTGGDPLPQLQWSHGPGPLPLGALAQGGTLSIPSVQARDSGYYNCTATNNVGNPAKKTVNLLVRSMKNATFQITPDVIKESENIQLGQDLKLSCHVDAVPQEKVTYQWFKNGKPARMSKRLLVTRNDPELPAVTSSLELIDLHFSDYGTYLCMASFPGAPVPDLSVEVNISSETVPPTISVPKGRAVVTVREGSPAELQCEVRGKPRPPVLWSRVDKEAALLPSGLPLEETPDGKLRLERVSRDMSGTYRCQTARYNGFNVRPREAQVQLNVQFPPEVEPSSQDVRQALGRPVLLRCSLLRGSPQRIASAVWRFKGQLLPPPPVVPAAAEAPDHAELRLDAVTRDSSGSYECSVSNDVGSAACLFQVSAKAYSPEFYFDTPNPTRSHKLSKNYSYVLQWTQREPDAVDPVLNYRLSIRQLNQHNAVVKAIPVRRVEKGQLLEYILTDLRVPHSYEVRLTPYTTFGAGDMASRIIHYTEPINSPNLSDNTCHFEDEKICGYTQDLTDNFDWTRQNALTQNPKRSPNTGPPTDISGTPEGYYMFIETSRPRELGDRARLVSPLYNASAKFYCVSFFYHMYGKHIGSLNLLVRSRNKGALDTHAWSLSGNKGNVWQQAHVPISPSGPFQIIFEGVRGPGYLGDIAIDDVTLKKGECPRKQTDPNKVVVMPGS


Columns and labels:
Experiment in all cases: cell surface interaction assay: query ECD tetramerised with fluorescent streptavidin on transfected cells, immunofluorescence
[1] = biological target: T1, UNC5A
[2] = biological target: T2, UNC5D
[3] = biological target: T3, MDGA1

binding result [1]	binding result [2]	binding result [3]	Binder
binds	binds		FLRT3 (receptor, human, UniProt Q9NZU0 29-528, looked up, biotinylated, extracellular domain; also called soluble query) soluble query ectodomain: KSCPSVCRCDAGFIYCNDRFLTSIPTGIPEDATTLYLQNNQINNAGIPSDLKNLLKVERIYLYHNSLDEFPTNLPKYVKELHLQENNIRTITYDSLSKIPYLEELHLDDNSVSAVSIEEGAFRDSNYLRLLFLSRNHLSTIPWGLPRTIEELRLDDNRISTISSPSLQGLTSLKRLVLDGNLLNNHGLGDKVFFNLVNLTELSLVRNSLTAAPVNLPGTNLRKLYLQDNHINRVPPNAFSYLRQLYRLDMSNNNLSNLPQGIFDDLDNITQLILRNNPWYCGCKMKWVRDWLQSLPVKVNVRGLMCQAPEKVRGMAIKDLNAELFDCKDSGIVSTIQITTAIPNTVYPAQGQWPAPVTKQPDIKNPKLTKDHQTTGSPSRKTITITVKSVTSDTIHISWKLALPMTALRLSWLKLGHSPAFGSITETIVTGERSEYLVTALEPDSPYKVCMVPMETSNLYLFDETPVCIETETAPLRMYNPTTTLNREQEKEPYKNPNLP
		binds	NLGN3 (receptor, human, UniProt Q9NZ94 38-848, looked up, expressed on cells; also called NLGN3 expressed on cells) cell-surface-expressed binding partner: QAPAPTVNTHFGKLRGARVPLPSEILGPVDQYLGVPYAAPPIGEKRFLPPEPPPSWSGIRNATHFPPVCPQNIHTAVPEVMLPVWFTANLDIVATYIQEPNEDCLYLNVYVPTEDVKRISKECARKPNKKICRKGGSGAKKQGEDLADNDGDEDEDIRDSGAKPVMVYIHGGSYMEGTGNMIDGSILASYGNVIVITLNYRVGVLGFLSTGDQAAKGNYGLLDQIQALRWVSENIAFFGGDPRRITVFGSGIGASCVSLLTLSHHSEGLFQRAIIQSGSALSSWAVNYQPVKYTSLLADKVGCNVLDTVDMVDCLRQKSAKELVEQDIQPARYHVAFGPVIDGDVIPDDPEILMEQGEFLNYDIMLGVNQGEGLKFVEGVVDPEDGVSGTDFDYSVSNFVDNLYGYPEGKDTLRETIKFMYTDWADRDNPETRRKTLVALFTDHQWVEPSVVTADLHARYGSPTYFYAFYHHCQSLMKPAWSDAAHGDEVPYVFGVPMVGPTDLFPCNFSKNDVMLSAVVMTYWTNFAKTGDPNKPVPQDTKFIHTKANRFEEVAWSKYNPRDQLYLHIGLKPRVRDHYRATKVAFWKHLVPHLYNLHDMFHYTSTTTKVPPPDTTHSSHITRRPNGKTWSTKRPAISPAYSNENAQGSWNGDQDAGPLLVENPRDYSTELSVTIAVGASLLFLNVLAFAALYYRKDKRRQEPLRQPSPQRGAGAPELGAAPEEELAALQLGPTHHECEAGPPHDTLRLTALPDYTLTLRRSPDDIPLMTPNTITMIPNSLVGLQTLHPYNTFAAGFNSTGLPHSHSTTRV
